Results as given in article PMC4933900, “Defined enzyme cocktail from the anaerobic fungus Orpinomyces sp. strain C1A effectively releases sugars from pretreated corn stover and switchgrass” (Scientific Reports, 2016).

Key:
EG5 = biological target: T1, EG5 (Pecoramyces ruminantium, UniProt A0A1B1JH60); assay: endoglucanase assay, CellG3 kit, 2-chloro-4-nitrophenol release; format: biochemical; details: printed BDL (below detection limit 500 nM); Lineweaver-Burk extrapolation 0.000003999 mM
T1 construct: whole CDS (nt 1-1251 of transcript; protein length 417) cloned; codon-optimised synthetic gene in pET28a(+) NdeI/XhoI, E. coli, purified
Source text: endoglucanase assay, CellG3 kit, 2-chloro-4-nitrophenol release on EG5

[1] = substrate: O=[N+]([O-])c1ccc(O[C@@H]2O[C@H](CO)[C@@H](O[C@@H]3O[C@H](CO)[C@@H](O)[C@H](O)[C@H]3O)[C@H](O)[C@H]2O)cc1; assay: cellobiohydrolase assay, p-nitrophenol release; format: biochemical, Pecoramyces ruminantium; details: 0.1 M sodium acetate buffer, 15 min; pH and temperature of kinetics not stated
purified protein = substrate: O=[N+]([O-])c1ccc(O[C@@H]2O[C@H](CO)[C@@H](O)[C@H](O)[C@H]2O)cc1; assay: purified protein; details: 0.1 M sodium acetate buffer, 15 min; pH and temperature of kinetics not stated
[2] = substrate: O=[N+]([O-])c1ccc(O[C@@H]2OC[C@@H](O)[C@H](O)[C@H]2O)cc1; assay: beta-xylosidase assay, p-nitrophenol release; format: biochemical, Pecoramyces ruminantium; details: 0.1 M sodium acetate buffer, 15 min; pH and temperature of kinetics not stated
[3] = substrate: O=[N+]([O-])c1ccc(O[C@@H]2O[C@H](CO)[C@@H](O[C@@H]3O[C@H](CO)[C@@H](O[C@@H]4O[C@@H]5COC(c6ccccc6)O[C@H]5[C@H](O)[C@H]4O)[C@H](O)[C@H]3O)[C@H](O)[C@H]2O)c(Cl)c1; assay: endoglucanase assay, CellG3 kit, 2-chloro-4-nitrophenol release; format: biochemical, Pecoramyces ruminantium; details: pH and temperature of kinetics not stated
Source text: endoglucanase assay, CellG3 kit, 2-chloro-4-nitrophenol release on Cel48

Molecule: O=[N+]([O-])c1ccc(O[C@@H]2O[C@H](CO)[C@@H](O[C@@H]3O[C@H](CO)[C@@H](O[C@@H]4O[C@@H]5COC(c6ccccc6)O[C@H]5[C@H](O)[C@H]4O)[C@H](O)[C@H]3O)[C@H](O)[C@H]2O)c(Cl)c1 (some centres unmarked) [CellG3]
- Km (EG5): < 0.5 µM

B1: Cel6A (Pecoramyces ruminantium) (protein)
chain: PKSSGGSTTTPVNPGDVDATPGDQLTLSGNPFSGVEFYINPYYVAEVDGAIAQMTDSSLKAKAEKMKTYSNAIWLDTIKNMNSWLESNLKGALAQQTGSKKVLTVFVVYDLPGRDCHALASNGELLANSSDAQRYKTEYIDVIEKHLKTYKSQPVALIVEPDSLANLVTNLESTPACRDSESYYLDGHAYLIKKLGVLPHVAMYLDIGHAFWLGWDDNREKAGKVYAKVIQSGSPGKVRGFTDNVSNYTPWEDPTLSRGPDTEWNPCPDEKRYLEAMHKDFKAAGISSVYFVSDTSRNGHKTDRKHPGEWCNQTGVGIGARPQASPISGMDYLDAFYWIKPLGESDGTSDESAVRFDGYCGHETAMKPAPEAGQWFQKHFEQGLENANPPL
notes: whole CDS (nt 2-1177 of transcript; protein length 391) cloned; codon-optimised synthetic gene in pET28a(+) NdeI/XhoI, E. coli, purified
- Km [1]: 228 µM
- Vmax [1]: 3.27 µmol/min/mg

B2: BGL3 (Pecoramyces ruminantium) (protein)
chain: TWEEADAKAREWCSDLTNEEKIALITGRENMTGVCVGSIDPIERKGFKGLCLQDGPAGVRFAKGTATSWQASINTAATFDRTLLRKVGEAQGNEFYQRGINVALAPSMGIQRAPAAGRIFESYGEDPFYVGQCGLEVLKGIQSQGVIANAKHYIANDQENNRGASTSNVPEQALWEVYMEPFYRTVVEGEAGTVMASYNAINGTYSTQNKRLLTDYLKGKLGFKGFVMSDWWAIFDVEKSFGNGTDMNMPGGKYWGPDYVGDSFWGEHIQECIDNGVFPQERLDDAVLRIIRTLYKLDQMDDYPEVNLYVDTNTKENAALNRKVGADSNVLLKNADNILPIKKSKKVKKIAVIGKDSMPPTLCEDMKCANGTLPLGWGSGTTDFKYVVDPLSAITKRAKKSKISVVSYGEDDAKKAAKVAKKADVAIVFVQADSGEEYITVEGNAGDRLNLDLWHGGNELIEAVAAVNKNTIVVIHAPGPVNVPFLDKVKGIIFAGLPGQETGNAITDVLFGDVNPSGHLPYTWAPREDYPTDVKYEPEYPDGGEKMTVYDYNEGLFVGYRWFDKKEIEPTFAFGYGLSYTTFEFSDLEATMEDDGLYVSLTVTNTGKVAGAAVPMIFLSFPESVKDYPIRLFKGFDKVMLKAGESKETTIFIDAHGLSYFDVEKMEYVRPKDGEFTVYAGSNARDLPLNVKVLANGDEI
notes: about residues 22-721; pET28a(+) NdeI/XhoI, codon-optimised, E. coli, purified
- Km (purified protein): 275 µM
- Vmax (purified protein): 1.55 µmol/min/mg
- Km [2]: 50600 µM
- Vmax [2]: 0.068 µmol/min/mg

B3: Cel48 (Pecoramyces ruminantium) (protein)
chain: MPSIRTALTLLGASAVIAAPTKRANDAYAQRVIDTYNAVTGNGSYRSDYFSPENVPYHSVETMMVEAPDQGHESVSETYSFWVWLEAINGKMTGNYDGVNTAWSYLEKHIIPDSKNQPGMSRYNSSSPATYAPEDDDITNYPSKLIFQDGLVGQDPIAAELQQAYGTWDIYAMHWIIDGDNWYGYGQQGDGTTKPSFINTFQRGPSESAWKTVPHPCWEEFKWGGRNGFLDLFTVDNSYAKQWRYTAAPDADARAIQAAYFAYIWAKEDGQNLSSLAGKAAKLGDYLRYAHYDKYFKKIGNCIGYQQCQAGSGKNSAHYLISWYFSWGGGLQGDWSWRIGSSHTHTGYQNPLAAWVLSTESAFKPKGSTAVKDWATSLDRQLELFRWLQAAEGCIAGGATNSWQGHYAQPPSDITSFYGMYYDWQPVYHDPPSNNWTGMQGWGMERVCSLYFLSGNEKAGKVCQDWAKWVKNNVRVNGSEVVHATNFSWSGNPDEWKPANFNKSGLNASLHGTVSTEGIDIGSLASIIKGLMWVSMKDGDQEGIDLAVQVMDAIEQYRDDHGYGVEEAREDYAKFNEEVYIPSGWTGKNAQGANIRNGVKFIDIRPKYKQDPDWPQIENFLNGGEAPRFTYHRFWAQTEIAVANGLISIYGLSDGSGVVPTKPGSCAAAIKAQGYKCCSANCEVVYTDADGDWGVENDEWCGCGGGEPECPAAITNQGYPCCSTCGTVYYTDGDGDWGVENGDWCGMPTDC
notes: whole CDS (nt 87-2342 of transcript; protein length 751) cloned; codon-optimised synthetic gene in pET28a(+) NdeI/XhoI, E. coli, purified
- Km [1]: 8980 µM
- Vmax [1]: 0.357 µmol/min/mg
- Km [3]: 30100 µM
- Vmax [3]: 0.048 µmol/min/mg

B4: XYL11 (Pecoramyces ruminantium) (protein)
chain: GSGTSGTADFPYAKVYIGNQQNQPSYQPTTTRNNSQPTSPATGGSSGEICSASGHSGESTKVTSNKVGSINGIGYELWADSGNNSATFYSDGSFSCTFQNAKDYLCRSGLSFDSTKTHSQIGHLYADFKLVKQGISNVDYSYVGIYGWTRSPLVEFYIVDNWLSQYRPGDWVGNKKHGDFTIDGAQYTVYENTRTGPSIDGNTQFKQYFSIRKTARDCGTIDITAHFQQWEKLGMTMGKMHEAKVLGEAGSNGSGTSGTADFPYAKVYTGS
- Km (purified protein): 216 µM
- Vmax (purified protein): 0.28 µmol/min/mg

B5: BGL1 (Pecoramyces ruminantium) (protein)
chain: IVKPAADAAADVASDAEVVASDEENPLDNGEDSADDTPKGKLPSDFKWGAATAAYQVEGAWNEEGRGESVWDHFTHLYPKNVESGDRSNKDSTNGNVACDSYHKFDEDIKMMKIMNANHYRFSISWSRLFPDGQAKKVDGEWNVNEAGAQYYDMVIDTLLDNDIIPLATLYHWDLPYALHEKYGGWLDYHSQFDFAKYAEFCFERYGDRVKGWITINEPWVNCVAGYKNGPGKAPYRCTGEAPRKLANDTTGLDLEGGCSYEIGPSQYTKDSEVLPANRPPQKLEDVWCSHNILLGHAQAVKVYREKFQKEQKGLIGITIDGEAQIPWEEPGMSEEEYENNKKYANLAAEFRIGWYSDPVMFGDYPESVKQRNGKDMPVFTDEEKKLLKGSSSDFLGWNTYTSHWAAQVKNEDGSYVEPPTDEEASYDNSKRDMWDDNCKGRGDGWTCIPPTLGSQAGSSWNTKYGPTIRVGLNWFSKRYEGIIKNGIIITENGCAQPNYKVSRANDQVTLDYWKSIGKEEFADTYDEDIIEDESDLEGTLIHDTYRIDWYKQYLENLRLAYVEDGVDVRGYMAWSLVDNFEWENGYETRFGMTYIDFYNDKDLKRVPKDSLTFLGQWYLDNVEQE
- Km (purified protein): 164 µM
- Vmax (purified protein): 5.41 µmol/min/mg

B6: EG5 (Pecoramyces ruminantium) (protein)
chain: TLLGLAIIGTKAMRNISSKELVKELTIGWSLGNTLDATCFETLNYAKDQTASETCWGNVKTTQELYYKLNDLGFNTFRIPTTWSGHFGDGPDYKISEAWMKRVHEIVDYALNADGYAILNIHHETWNHAFQKNLESAKKILVAIWKQIAAEFADYDEHLIFEGMNEPRKVGDAAEWNGGDYEGWNFVNEMNDLFVKTIRATGGNNALRHLMIPTYAACVNDGAINNFRFPSGDDKVIVSLHSYSPYNFALNNGAGAISNFNDGSEIDWVMNTINSSFISKGIPVIIGEFGAMNRNNEADREKWAEYYIKKATSLGIPCVIWDNGYFEGEGERFGLIDRKSLNVVYPRLVNGLMKGLGDKKPKTTKVRTTTTTTIQVQPTNNNDCFSTKLGYDCCNGCEVFYTDNDGKWGVENGNWCG
- Km (purified protein): 84000 µM
- Vmax (purified protein): 0.45 µmol/min/mg
